# From patent US20030143237A1 (University of California, published 2003)
# B1: hAFP137-145, residues 137-145 of SEQ ID NO:2 (peptide)
# peptide: PLFQVPEPV
# notes: One of the four 'dominant' AFP peptides; synthesized by standard techniques
# B2: hAFP158-166, residues 158-166 of SEQ ID NO:2 (peptide)
# peptide: FMNKFIYEI
# notes: as for B1
# B3: hAFP325-334, residues 325-334 of SEQ ID NO:2 (peptide)
# peptide: GLSPNLNRFL
# notes: as for B1
# B4: hAFP542-550, residues 542-550 of SEQ ID NO:2 (peptide)
# peptide: GVALQTMKQ
# notes: as for B1
# Molecular target: T1, HLA-A*0201 (human)
# T1 construct: MHC class I molecule on cells; detected by flow cytometry with anti-HLA-A2 antibody BB7.2; also called HLA-A2; A2.1
# Test: off-kinetics assay on acid-stripped HLA-A*0201 LCL pulsed with peptide and b2 microglobulin, flow cytometry of surface HLA-A2 (stable if MFI at least 1.5-fold over unpulsed cells)
# Description: Next, MHC-peptide complex stability was determined using an off-kinetics assay. […] Each peptide was immediately pulsed onto cells at […] for 1 hour in the presence of b2 microglobulin at 3 ug/ml at room temperature. Excess peptide was washed off and the cells were incubated at 37° C. for 0, 2, 4 and 6 hours. Cells were washed at the end of each time point and stained for cell surface HLA-A2 expression, then analyzed by flow cytometry.
row,Binder,Relative Off kinetics [h]
1,B1,4
2,B2,4
3,B3,2
4,B4,6
